Assay results as given in patent publication US20170044545, “APTAMER FOR BONDING TO AUTOTAXIN AND INHIBITING BIOLOGICAL ACTIVITY OF AUTOTAXIN, AND USE FOR SAME” (RIBOMIC INC., published 2017).

B1: SEQ 8 aptamer (ssRNA)
RNA: GGGUGGCAACAGGACAUGGAACGCGCCCCAACUGCUUGAAACAGGUUUUGCUGAGCAGUGAUGUGAGAUGCGUCUUCGUAC
modifications: 2'-F pyrimidines, 2'-OH purines
B2: SEQ 14 (ssRNA)
RNA: GGGCUAAACGCUCUGAGGGAAACAGGUUUUGCUCCUCGGAGCGUGGACGCCC
modifications: 2'-F pyrimidines, 2'-OH purines

Each binder was assayed against Autotaxin (ENPP2, NPP2) (Homo sapiens, UniProt Q13822 Q13822:36-863) (assay: inhibition).
For UCUGAGGGAAACAGGUUUUGCUCCUCGGA (mixed, as 16(21) with 5' 80 kDa PEG (GL4-800GS2)-ssH linker instead of 5' idT) [SEQ 16(45)], the IC50 was 13 nM. ACUGCUUGAAACAGGUUUUGCUGAGCAGU (ssRNA, 2'-F pyrimidines, 2'-OH purines) [SEQ 24] showed an IC50 of 33 nM. For UUCGAGGGAAACAGGUUUUGCUCCUCAAA (ssRNA, 2'-F pyrimidines, 2'-OH purines) [SEQ 52], the IC50 was 59 nM. UCUGAGGGAAACAGGUCUUGCUCCUCGGA (ssRNA, 2'-F pyrimidines, 2'-OH purines) [SEQ 41] gave an IC50 of 43 nM. For GAGGGAAACAGGUUUUGCUCCUC (ssRNA, 2'-F pyrimidines, 2'-OH purines) [SEQ 20], the IC50 was 100 nM. Binder UCUGAGGGAAACAGGUUUUGCUCCUCGGA (mixed, as 16(21) with dT1) [SEQ 16(40)] has an IC50 of 0.9 nM. UCUGAGGGAAACAGGUUUUGCUCCUCGGA (mixed, as 16(47) with 5' 80 kDa PEG (GL2-800GS2)-ssH linker instead of 5' idT) [SEQ 16(48)] gave an IC50 of 7.8 nM. UCUGGGGGAAACAGGUUUUGCUCCCCGGA (ssRNA, 2'-F pyrimidines, 2'-OH purines) [SEQ 44] gave an IC50 of 38 nM. UCUGAGGGAAACAGGUUUUGCUCCUCGGA (mixed, as 16(21) with dC23 dC24 dC26) [SEQ 16(33)] showed an IC50 of 0.6 nM. UCUGAGGGAAACAGGUUUUGCUCCUCGGA (mixed, as 16(21) with dC2) [SEQ 16(41)] was tested, and the IC50 was 2.2 nM. B1 was tested, and the IC50 was 49 nM. UCUGAGGGAAACAGGUUUUGCUCCUCGGA (mixed, as 16(21) with 5' 80 kDa PEG (GL2-800GS2)-ssH linker instead of 5' idT) [SEQ 16(43)] was tested, and the IC50 was 3 nM. With UCUGAGGGAAACAGGUUUUGCUCCUCGGA (mixed, as 16(33) with 5' 40 kDa PEG (GL2-400GS2)-ssH linker instead of 5' idT) [SEQ 16(35)] the IC50 was 3 nM. Work on UGGGAAGGAAACAGGUUUUGCUCUUCACC (ssRNA, 2'-F pyrimidines, 2'-OH purines) [SEQ 53] yielded an IC50 of 30 nM. With UCUGAGGGAAACAGGUUUUGCUCCUCGGA (mixed, as 16(21) with dC23 dC26) [SEQ 16(38)] the IC50 was 1.3 nM. In the case of CGAGGGAAACAGGUUUUGCUCCUCG (ssRNA, 2'-F pyrimidines, 2'-OH purines) [SEQ 19], the IC50 is reported as 36 nM. In the case of UCUGAGGGAAACAGGUUUUGCUCCUCGGA (mixed, as 16(32) with PS at A10) [SEQ 16(36)], the IC50 is reported as 0.3 nM. With UCUGAGGGAAACAGGUUUUGCUCCUCAGA (ssRNA, 2'-F pyrimidines, 2'-OH purines) [SEQ 30] the IC50 was 50 nM. Binder UCUGAGGGUAACAGGUUUUGCUCCUCGGA (ssRNA, 2'-F pyrimidines, 2'-OH purines) [SEQ 40] has an IC50 of 49 nM. Binder UCUGAGGGAAACAGGUUUUGCUCCUCGGA (mixed, as 16(47) with PS at A10 and 2'-OMe C2 U3) [SEQ 16(55)] has an IC50 of 0.4 nM. In the case of AGGGAAACAGGUUUUGCUCCU (ssRNA, 2'-F pyrimidines, 2'-OH purines) [SEQ 21], the IC50 is reported as 710 nM. Work on UCUGAGGGAAACAGGUUUUGCUCCUCGGA (mixed, as 16(32) with 5' 40 kDa PEG (GL2-400GS2)-ssH linker instead of 5' idT) [SEQ 16(34)] yielded an IC50 of 4.2 nM. In the case of UCUGAGGGAAACAGGCUUUGCUCCUCGGA (ssRNA, 2'-F pyrimidines, 2'-OH purines) [SEQ 31], the IC50 is reported as 130 nM. In the case of UCCGAGGGAAACAGGUUUUGCUCCUCGCA (ssRNA, 2'-F pyrimidines, 2'-OH purines) [SEQ 47], the IC50 is reported as 66 nM. Binder UAGAGAUGGAAACAGGUUUUGCUCAUCUCA (ssRNA, 2'-F pyrimidines, 2'-OH purines) [SEQ 50] has an IC50 of 21 nM. Work on UCUGAGGGAAACAGGUUUCGCUCCUCGGA (ssRNA, 2'-F pyrimidines, 2'-OH purines) [SEQ 32] yielded an IC50 of 55 nM. Work on UCUGAGGGAGACAGGUUUUGCUCCUCGGA (ssRNA, 2'-F pyrimidines, 2'-OH purines) [SEQ 34] yielded an IC50 of 340 nM. With UCUGAGGGAAACAGGUUUUGCUCCUCGGA (mixed, as 16(47) with dA10 and phosphorodithioate at A10) [SEQ 16(68)] the IC50 was 1.7 nM. Work on UCCGAGGGAAACAGGUUUUGCUCCUCGGA (ssRNA, 2'-F pyrimidines, 2'-OH purines) [SEQ 29] yielded an IC50 of 53 nM. For UCUGAGGGAAACAGGUUUUGCUCCUCGAA (ssRNA, 2'-F pyrimidines, 2'-OH purines) [SEQ 45], the IC50 was 29 nM. UCUGAGGGAAACAGGUUUUGCUCCUCGGA (mixed, as 16(49) with 2'-OMe C2 U3 U22 C24 U25) [SEQ 16(65)] showed an IC50 of 0.3 nM. In the case of UCUGAGGGAAACAGGUUUUGCUCCUCGGA (mixed, as 16(21) with dT3) [SEQ 16(42)], the IC50 is reported as 1 nM. UCUGAGGGAAACAGGUUUUGCUCCUCGGA (mixed, as 16(38) with 5' 40 kDa PEG (GL2-400GS2)-ssH linker instead of 5' idT) [SEQ 16(39)] showed an IC50 of 3.8 nM. For CUGAGGGAAACAGGUUUUGCUCCUCGG (ssRNA, 2'-F pyrimidines, 2'-OH purines) [SEQ 18], the IC50 was 34 nM. In the case of UCUGAGGGAAACAGGUUUUGCUCCUCGGA (mixed, as 16(45) with PS at A10) [SEQ 16(46)], the IC50 is reported as 2 nM. With UCUGAGGGAAACAGGUUUUGCUCCUCGGA (mixed, as 16(21) with dT1 dC23 dC26) [SEQ 16(47)] the IC50 was 2.4 nM. UCUGAGGGAAACAGGUUUUGCUCCUCGGA (ssRNA, 2'-F pyrimidines, 2'-OH purines) [SEQ 16] showed an IC50 of 12 nM. UGAGGGAAACAGGUUUUGCUCCUCG (ssRNA, 2'-F pyrimidines, 2'-OH purines) [SEQ 17] showed an IC50 of 37 nM. Binder UUUGAAGGAAACAGGUUUUGCUCUUCGAG (ssRNA, 2'-F pyrimidines, 2'-OH purines) [SEQ 51] has an IC50 of 85 nM. In the case of UCUGAGGGAAACAGGUUUUGCUCCUCGGA (mixed, as 16(43) with PS at A10) [SEQ 16(44)], the IC50 is reported as 2.8 nM. For CCGCUCUGAGGGAAACAGGUUUUGCUCCUCGGAGCGG (ssRNA, 2'-F pyrimidines, 2'-OH purines) [SEQ 15], the IC50 was 7 nM. For UCUGAGGGGAACAGGUUUUGCUCCUCGGA (ssRNA, 2'-F pyrimidines, 2'-OH purines) [SEQ 33], the IC50 was 690 nM. In the case of UCUGAGGGAAACAGGUUUUGCUCCUCGGA (mixed, as 16(48) with PS at A10) [SEQ 16(49)], the IC50 is reported as 1.6 nM. For UCUGAGGGAAACAGGUUUUGCUCCUCGGA (mixed, as 16(33) with PS at A10) [SEQ 16(37)], the IC50 was 0.25 nM. In the case of B2, the IC50 is reported as 26 nM. Binder UCUGAGGGUAACAGGUUAUGCUCCUCGGA (ssRNA, 2'-F pyrimidines, 2'-OH purines) [SEQ 26] has an IC50 of 510 nM.
